From patent US20160185859A1 (Pfizer, published 2016)

B1: A2-AcBut-CalichDMH, A2 antibody conjugated to calicheamicin using 4-(4'-acetylphenoxy)butanoic acid (AcBut) (other)
VH: QVQLQQSRPELVKPGASVKMSCKASGYTFTDYVISWVKQRTGQGLEWIGEIYPGSNSIYYNEKFKGRATLTADKSSSTAYMQLSSLTSEDSAVYFCAMGGNYGFDYWGQGTTLTVSS
VL: QIVLTQSPAIMSASLGERVTLTCTASSSVNSNYLHWYQQKPGSSPKLWIYSTSNLASGVPARFSGSGSGTSYSLTISSMEAEDAATYYCHQYHRSPLTFGAGTKLELK
modifications: calicheamicin (CalichDMH) conjugated to the antibody through the AcBut linker; residues carrying it not stated
B2: chimeric A1 antibody (antibody, V domains shown)
VH: QIQLVQSGPELKKPGETVKISCKASGYTFTNFGMNWVKQGPGEGLKWMGWINTNTGEPRYAEEFKGRCAFSLETTASTAYLQINNLKNEDTATYFCARDWDGAYFFDYWGQGTTLTVSS
VL: SIVMTQTPKFLLVSAGDRVTITCKASQSVSNDVAWYQQKPGQSPKLLINFATNRYTGVPNRFTGSGYGTDFTFTISTVQAEDLALYFCQQDYSSPWTFGGGTKLEIK
modifications: Biotinylated when used as the labelled competitor in Table 13; the site is not stated.
notes: also called ChiA1; ChiA1 γ4
B3: chimeric A2 antibody (antibody, human IgG4, V domains shown)
VH: B1 VH
VL: B1 VL
notes: also called ChiA2; ChiA2 γ4

What was measured:
[1] = biological target: T1, human 5T4 antigen expressed on cells (PC14PE6 cells; MDAMB435/5T4 cells) (human, UniProt Q13641 32-420); assay: cell-based or functional assay
T1 sequence: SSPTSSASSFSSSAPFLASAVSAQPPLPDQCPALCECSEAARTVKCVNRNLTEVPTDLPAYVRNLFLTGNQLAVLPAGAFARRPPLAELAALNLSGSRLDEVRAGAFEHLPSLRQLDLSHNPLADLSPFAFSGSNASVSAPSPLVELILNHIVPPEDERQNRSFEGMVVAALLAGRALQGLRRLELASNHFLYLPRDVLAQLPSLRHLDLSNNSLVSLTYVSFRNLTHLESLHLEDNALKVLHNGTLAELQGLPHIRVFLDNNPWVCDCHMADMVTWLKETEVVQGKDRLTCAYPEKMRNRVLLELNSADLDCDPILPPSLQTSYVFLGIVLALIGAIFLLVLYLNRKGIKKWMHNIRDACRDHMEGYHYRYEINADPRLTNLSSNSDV

human 5T4 antigen [2] = biological target: T2, human 5T4 antigen (human, UniProt Q13641 32-355, limits assumed); assay: BIACORE (SPR); human 5T4 antigen immobilized on CM5 chip
T2 sequence: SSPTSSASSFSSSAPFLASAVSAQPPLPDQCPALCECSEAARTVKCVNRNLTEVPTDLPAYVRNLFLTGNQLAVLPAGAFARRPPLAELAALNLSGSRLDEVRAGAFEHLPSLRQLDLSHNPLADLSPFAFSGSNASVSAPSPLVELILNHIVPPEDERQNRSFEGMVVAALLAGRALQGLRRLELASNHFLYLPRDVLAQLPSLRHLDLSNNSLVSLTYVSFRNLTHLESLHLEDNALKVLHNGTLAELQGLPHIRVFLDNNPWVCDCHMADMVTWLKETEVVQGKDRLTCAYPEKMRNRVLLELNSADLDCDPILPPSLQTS
Experimental: To assess the binding specificity and affinity of the A1, A2, and A3 antibodies, BIACORE® analysis was performed using human 5T4 antigen immobilized on a CM5 chip. BIACORE® technology utilizes changes in the refractive index at the surface layer upon binding of the antibody to the 5T4 antigen immobilized on the layer. Binding is detected by surface plasmon resonance (SPR) of laser light refracting from the surface. Analysis of the signal kinetics on rate and off rate allows discrimination between non-specific and specific interactions. The H8 anti-5T4 antibody was used as a control. H8 is a hybridoma-generated monoclonal mouse IgG1 antibody described in PCT International Publication No. WO 98/55607 and in Forsberg et al. (1997) J. Biol. Chem. 272(19):[…].
To assess the binding specificity and affinity of the chimeric and humanized H8, A1, A2, and A3 antibodies, BIACORE® analysis was performed using human 5T4 antigen immobilized on a CM5 chip. See Example 2.

human 5T4 antigen [3] = biological target: T2, human 5T4 antigen; assay: ELISA; inhibition of biotinylated chimeric A1 antibody binding to human 5T4
[4] = biological target: chimpanzee 5T4 ectodomain Fc (chimpanzee; human, UniProt P01857 99-330 = IgG part); assay: ELISA; 5T4 ectodomain/Fc fusion protein from transiently transfected COS-1 cells; given as ED50
Experimental: (§1) To assay binding of anti-5T4 antibodies, 5T4 ectodomain/Fc fusion proteins were transiently transfected into COS-1 cells, and ELISA assays were performed. Non-relevant human IgG4 and IgG1 antibodies were used as controls.

human 5T4 ectodomain Fc = biological target: T3, human 5T4 ectodomain Fc (human, UniProt Q13641 32-355); assay: as above
T3 construct: also called human 5T4 ectodomain Fc fusion protein; Human 5T4 Ectodomain/Fc Fusion; not shown: Fc constant regions from human IgG1
T3 sequence: T2 sequence
Experimental: as §1

[5] = biological target: T4, cynomologous monkey 5T4 ectodomain Fc (cynomologous monkey; human, UniProt Q4R8Y9 32-355); assay: as above
T4 construct: not shown: Fc constant regions from human IgG1
T4 chain: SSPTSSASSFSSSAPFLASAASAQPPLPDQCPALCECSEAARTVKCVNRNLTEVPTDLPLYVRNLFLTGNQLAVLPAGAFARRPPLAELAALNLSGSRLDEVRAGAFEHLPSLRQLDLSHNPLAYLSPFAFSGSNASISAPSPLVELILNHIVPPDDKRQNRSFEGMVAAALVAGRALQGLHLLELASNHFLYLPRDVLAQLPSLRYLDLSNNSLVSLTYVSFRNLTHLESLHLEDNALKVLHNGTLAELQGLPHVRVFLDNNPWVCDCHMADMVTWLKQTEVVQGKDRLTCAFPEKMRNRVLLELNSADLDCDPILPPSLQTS
Experimental: as §1

[6] = biological target: T5, black-tailed marmoset 5T4 ectodomain Fc (black-tailed marmoset; human, UniProt Q13641 32-355); assay: as above
T5 construct: not shown: Fc constant regions from human IgG1
T5 chain: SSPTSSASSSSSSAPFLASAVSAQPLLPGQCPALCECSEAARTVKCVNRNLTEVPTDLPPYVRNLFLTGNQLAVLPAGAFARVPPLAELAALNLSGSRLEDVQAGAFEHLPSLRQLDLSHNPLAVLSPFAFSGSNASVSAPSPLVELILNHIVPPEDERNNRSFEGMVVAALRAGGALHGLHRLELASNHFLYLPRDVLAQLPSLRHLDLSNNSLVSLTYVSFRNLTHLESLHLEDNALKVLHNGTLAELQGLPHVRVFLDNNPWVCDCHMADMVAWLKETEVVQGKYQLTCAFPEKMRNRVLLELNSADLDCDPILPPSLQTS
Experimental: as §1

human 5T4 antigen [7] = biological target: T2, human 5T4 antigen; assay: BIACORE; human 5T4 chip saturated with first antibody humanized H8 (competitor); 19 s after injection of second antibody
human 5T4 antigen [8] = biological target: T2, human 5T4 antigen; assay: BIACORE; human 5T4 chip saturated with first antibody humanized H8 (competitor); 75 s after injection of second antibody
human 5T4 antigen [9] = biological target: T2, human 5T4 antigen; assay: BIACORE; human 5T4 chip saturated with first antibody humanized H8 (competitor); 150 s after injection of second antibody
human 5T4 antigen [10] = biological target: T2, human 5T4 antigen; assay: BIACORE; human 5T4 chip saturated with first antibody humanized H8 (competitor); 300 s after injection of second antibody
human 5T4 antigen [11] = biological target: T2, human 5T4 antigen; assay: BIACORE; human 5T4 chip saturated with first antibody humanized H8 (competitor); 600 s after injection of second antibody
human 5T4 antigen [12] = biological target: T2, human 5T4 antigen; assay: BIACORE; human 5T4 chip saturated with first antibody humanized H8 (competitor); 37.5 s after injection of second antibody

Fold CalichDMH, MTS assay, MDAMB435/5T4 cells [1] [fold] | Ka (human 5T4 antigen [2]) [M⁻¹] | Kd (human 5T4 antigen [2]) [nM] | koff (human 5T4 antigen [2]) [s⁻¹] | kon (human 5T4 antigen [2]) [M⁻¹ s⁻¹] | IC50 (human 5T4 antigen [3]) [nM] | EC50 [4] [nM] | EC50 (human 5T4 ectodomain Fc) [nM] | EC50 [5] [nM] | EC50 [6] [nM] | percentage of second antibody bound following saturation with first antibody (human 5T4 antigen [7]) [%] | percentage of second antibody bound following saturation with first antibody (human 5T4 antigen [8]) [%] | percentage of second antibody bound following saturation with first antibody (human 5T4 antigen [9]) [%] | percentage of second antibody bound following saturation with first antibody (human 5T4 antigen [10]) [%] | percentage of second antibody bound following saturation with first antibody (human 5T4 antigen [11]) [%] | percentage of second antibody bound following saturation with first antibody (human 5T4 antigen [12]) [%] | Binder
0.13 |  |  |  |  |  |  |  |  |  |  |  |  |  |  |  | B1
 | 2.3e+09 | 0.44 | 6.7e-05 | 150000 | 16 to 20 | 0.27 | 0.28 | 0.18 | 0.24 | 92.7 | 93.8 | 95.8 | 97.3 | 98.7 | 92.4 | B2
 | 5.7e+08 | 1.8 | 0.00025 | 140000 |  | 0.22 | 0.21 | 0.18 | 0.22 | 86.9 | 86.9 | 90.5 | 93.7 | 96.7 | 84.7 | B3
